Measured values from publication PMC10435562, “VEGF-B prevents excessive angiogenesis by inhibiting FGF2/FGFR1 pathway” (Signal Transduction and Targeted Therapy, 2023).

T1: FGFR1-Fc (Z03223, Genscript) (UniProt P11362 22-376)
T1 construct: fibroblast growth factor receptor 1 part of a bought Fc fusion; also called FGFR1 homodimer; FGFR1/FGFR1; source: bought: Genscript (Z03223)
T1 sequence (looked up): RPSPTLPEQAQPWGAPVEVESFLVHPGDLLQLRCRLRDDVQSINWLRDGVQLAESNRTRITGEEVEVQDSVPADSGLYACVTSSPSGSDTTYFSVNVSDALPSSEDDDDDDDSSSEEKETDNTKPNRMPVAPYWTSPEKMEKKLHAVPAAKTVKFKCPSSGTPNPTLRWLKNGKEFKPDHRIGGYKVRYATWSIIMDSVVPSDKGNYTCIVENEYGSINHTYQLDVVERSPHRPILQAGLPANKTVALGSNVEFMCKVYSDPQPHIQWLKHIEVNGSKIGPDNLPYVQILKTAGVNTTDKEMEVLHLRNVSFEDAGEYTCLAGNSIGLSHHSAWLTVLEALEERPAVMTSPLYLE

B1: VEGFR1 ECD-L-FGFR1 ECD (other)
chain: SKLKDPELSLKGTQHIMQAGQTLHLQCRGEAAHKWSLPEMVSKESERLSITKSACGRNGKQFCSTLTLNTAQANHTGFYSCKYLAVPTSKKKETESAIYIFISDTGRPFVEMYSEIPEIIHMTEGRELVIPCRVTSPNITVTLKKFPLDTLIPDGKRIIWDSRKGFIISNATYKEIGLLTCEATVNGHLYKTNYLTHRQTNTIIDVQISTPRPVKLLRGHTLVLNCTATTPLNTRVQMTWSYPDEKNKRASVRRRIDQSNSHANIFYSVLTIDKMQNKDKGLYTCRVRSGPSFKSVNTSVHIYDKAFITVKHRKQQVLETVAGKRSYRLSMKVKAFPSPEVVWLKDGLPATEKSARYLTRGYSLIIKDVTEEDAGNYTILLSIKQSNVFKNLTATLIVNVKPQIYEKAVSSFPDPALYPLGSRQILTCTAYGIPQPTIKWFWHPCNHNHSEARCDFCSNNEESFILDADSNMGNRIESITQRMAIIEGKNKMASTLVVADSRISGIYICIASNKVGTVGRNISFYITDVPNGFHVNLEKMPTEGEDLKLSCTVNKFLYRDVTWILLRTVNNRTMHYSISKQKMAITKEHSITLNLTIMNVSLQDSGTYACRARNVYTGEEILQKKEITIRDQEAPYLLRNLSDHTVAISSSTTLDCHANGVPEPQITWFKNNHKIQQEPGIILGPGSSTLFIERVTEEDEGVYHCKATNQKGSVESSAYLTVQGTSDKSNLERPSPTLPEQAQPWGAPVEVESFLVHPGDLLQLRCRLRDDVQSINWLRDGVQLAESNRTRITGEEVEVQDSVPADSGLYACVTSSPSGSDTTYFSVNVSDALPSSEDDDDDDDSSSEEKETDNTKPNRMPVAPYWTSPEKMEKKLHAVPAAKTVKFKCPSSGTPNPTLRWLKNGKEFKPDHRIGGYKVRYATWSIIMDSVVPSDKGNYTCIVENEYGSINHTYQLDVVERSPHRPILQAGLPANKTVALGSNVEFMCKVYSDPQPHIQWLKHIEVNGSKIGPDNLPYVQILKTAGVNTTDKEMEVLHLRNVSFEDAGEYTCLAGNSIGLSHHSAWLTVLEALEERPAVMTSPLYLE
B2: FGFR1 DI (domain or fragment)
chain: PTLPEQAQPWGAPVEVESFLVHPGDLLQLRCRLRDDVQSINWLRDGVQLAESNRTRITGEEVEVQDSVPADSGLYACVTSSPSGSDTTYFSVNVS
B3: Human VEGF-B167 (ligand, UniProt P49765-2 22-188, looked up)
chain: PVSQPDAPGHQRKVVSWIDVYTRATCQPREVVVPLTVELMGTVAKQLVPSCVTVQRCGGCCPDDGLECVPTGQHQVRMQILMIRYPSSQLGEMSLEEHSQCECRPKKKDSAVKPDSPRPLCPRCTQHHQRPDPRTCRCRCRRRSFLRCQGRGLELNPDTCRCRKLRR
notes: UniProt P49765 is printed for the VEGF-B167 peptides; Bought recombinant protein; source: bought: PeproTech (100-20B)
B4: FGFR1 ECD-L-VEGFR1 ECD (other)
chain: RPSPTLPEQAQPWGAPVEVESFLVHPGDLLQLRCRLRDDVQSINWLRDGVQLAESNRTRITGEEVEVQDSVPADSGLYACVTSSPSGSDTTYFSVNVSDALPSSEDDDDDDDSSSEEKETDNTKPNRMPVAPYWTSPEKMEKKLHAVPAAKTVKFKCPSSGTPNPTLRWLKNGKEFKPDHRIGGYKVRYATWSIIMDSVVPSDKGNYTCIVENEYGSINHTYQLDVVERSPHRPILQAGLPANKTVALGSNVEFMCKVYSDPQPHIQWLKHIEVNGSKIGPDNLPYVQILKTAGVNTTDKEMEVLHLRNVSFEDAGEYTCLAGNSIGLSHHSAWLTVLEALEERPAVMTSPLYLESKLKDPELSLKGTQHIMQAGQTLHLQCRGEAAHKWSLPEMVSKESERLSITKSACGRNGKQFCSTLTLNTAQANHTGFYSCKYLAVPTSKKKETESAIYIFISDTGRPFVEMYSEIPEIIHMTEGRELVIPCRVTSPNITVTLKKFPLDTLIPDGKRIIWDSRKGFIISNATYKEIGLLTCEATVNGHLYKTNYLTHRQTNTIIDVQISTPRPVKLLRGHTLVLNCTATTPLNTRVQMTWSYPDEKNKRASVRRRIDQSNSHANIFYSVLTIDKMQNKDKGLYTCRVRSGPSFKSVNTSVHIYDKAFITVKHRKQQVLETVAGKRSYRLSMKVKAFPSPEVVWLKDGLPATEKSARYLTRGYSLIIKDVTEEDAGNYTILLSIKQSNVFKNLTATLIVNVKPQIYEKAVSSFPDPALYPLGSRQILTCTAYGIPQPTIKWFWHPCNHNHSEARCDFCSNNEESFILDADSNMGNRIESITQRMAIIEGKNKMASTLVVADSRISGIYICIASNKVGTVGRNISFYITDVPNGFHVNLEKMPTEGEDLKLSCTVNKFLYRDVTWILLRTVNNRTMHYSISKQKMAITKEHSITLNLTIMNVSLQDSGTYACRARNVYTGEEILQKKEITIRDQEAPYLLRNLSDHTVAISSSTTLDCHANGVPEPQITWFKNNHKIQQEPGIILGPGSSTLFIERVTEEDEGVYHCKATNQKGSVESSAYLTVQGTSDKSNLE

Columns and labels:
[1] = molecular target: FGF2 (BFF-H4117, Acro Biosystems) (UniProt P09038); assay: SPR; VEGF-B immobilised at 3820 RU on CM5 (the FGF2 surface is not described); FGFR1 DI (18.75-600 nM), DII (3.125-100 nM), DIII (12.5-400 nM), DII-III (25-800 nM) flowed at 10 µl/min
FGF2 (BFF-H4117, Acro Biosystems) (UniProt P09038), sequence (P09038 143-288): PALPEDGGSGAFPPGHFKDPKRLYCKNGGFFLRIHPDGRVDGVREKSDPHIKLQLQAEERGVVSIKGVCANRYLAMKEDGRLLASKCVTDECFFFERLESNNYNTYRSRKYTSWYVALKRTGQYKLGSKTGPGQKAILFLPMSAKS

Human VEGF-B167 [2] = molecular target: B3; assay: as above
Human VEGF-B167 [3] = molecular target: B3; assay: SPR; VEGF-B immobilised at 3820 RU on CM5 (the VEGF-C surface is not described); heterodimer proteins flowed at 1.875-60 nM, 10 µl/min; conditions: both partners purified
[4] = molecular target: T2, FGF2 (BFF-H4117, Acro Biosystems) (UniProt P09038 143-288); assay: SPR; VEGF-B immobilised at 3820 RU on CM5 (the FGF2 surface is not described); FGFR1 DI (18.75-600 nM), DII (3.125-100 nM), DIII (12.5-400 nM), DII-III (25-800 nM) flowed at 10 µl/min; conditions: both partners purified
T2 construct: fibroblast growth factor 2 (basic FGF); Immobilised on the CM5 chip for SPR; also called basic FGF; fibroblast growth factor 2; source: bought: Acro Biosystems (BFF-H4117)
T2 sequence (P09038 143-288): as above

[5] = molecular target: T1, FGFR1-Fc (Z03223, Genscript); assay: SPR; BIAcore 8000; VEGF-B, FGF2 or PlGF immobilised (5389, 1860, 4700 RU) on CM5 by amine coupling; FGFR1-Fc flowed at 12.5-400 nM, 30 µl/min; 1:1 binding model, KD = kd/ka; conditions: both partners purified

| Kd [1] [nM] | Kd (Human VEGF-B167 [2]) [nM] | other results | Molecule |
| --- | --- | --- | --- |
| 71 | 101 |  | FGFR1 DII (domain or fragment) |
| 63 | 49 |  | FGFR1 DII-III (domain or fragment) |
| 43 | 64 |  | FGFR1 DIII (domain or fragment) |
|  |  | Kd (Human VEGF-B167 [3]): 1.4 nM | B1 |
|  |  | Kd (Human VEGF-B167 [2]; both partners purified): 532 nM; Kd [4]: 245 nM | B2 |
|  |  | Kd [5]: 17 nM | B3 |
|  |  | Kd (Human VEGF-B167 [3]): 3.7 nM | B4 |
